Source: the supplement of paper PMC9170038

Tested on: MS2 coat protein
Experiment: apparent KD of MS2 coat protein; designed switch direction (-1 OFF switch, 1 ON switch): 1; higher = weaker reporter binding
Summary of the method: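 The apparent KD reported per design is the median over clusters of curve fits to normalised cluster fluorescence. The RNA switches were transcribed on Illumina chips by stalled E. coli RNA polymerase. SNAP-549-labelled MS2 coat protein was titrated from 0.7 or 1.5 nM, doubling up to 3 µM, in Tris-HCl pH 7.5 buffer containing KCl, MgCl2, BSA, DTT, tRNA and Tween-20, with no input, 200 uM small-molecule ligand, or an oligonucleotide input.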

[1] = Eterna round: R95, input ligand: FMN 200 uM
[2] = Eterna round: R95, input ligand: microRNA oligo, concentration not stated
[3] = Eterna round: R95, input ligand: none
[4] = input ligand: microRNA oligo, concentration not stated

CAGCACUGUCGAGAGGAUAUGCGGUGAUAGACAUGAGGAUCACCCAUGUUAGCGACAGCAUCACGGCAGAAGGCUCUGCUGCUGC [Soteed Omei mod 40] (puzzle: Same State 2)
apparent KD of MS2 coat protein [1]: 43.5 nM
apparent KD of MS2 coat protein [2]: 130 nM
apparent KD of MS2 coat protein [3]: 349 nM

CAGCACUGUCGAGAGGAUAUGCGGUGAUGGACAUGAGGAUCACCCAUGUUAGCGACAGCAUCACGGCAGAAGGCUCUACUGUUGC [Soteed Omei mod 34] (puzzle: Same State 2)
apparent KD of MS2 coat protein [1]: 12.6 nM
apparent KD of MS2 coat protein [2]: 12.2 nM
apparent KD of MS2 coat protein [3]: 14.3 nM

CAGCGUACCGGAGGAUAUUGUGGAUACGACCAACAUGAGGAUCACCCAUGUGGGACUAGUCAAAUCAAGAAGGUUGGACCGUCA [Eternabot solution 44] (Eterna round: R96, puzzle: Same State NG 2)
apparent KD of MS2 coat protein (input ligand: FMN 200 uM): 26.2 nM
apparent KD of MS2 coat protein [4]: 25.6 nM
apparent KD of MS2 coat protein (input ligand: none): 33.3 nM

CAGGCGCAACAUGAGGAUCACCCAUGUGCUAACUUAACAGGGCAGGAUAUGGAAGCUCUAUGUCUCCAGAAGGGCUGGCGGAGC [Eternabot solution 38] (Eterna round: R96, puzzle: Same State NG 3)
apparent KD of MS2 coat protein (input ligand: FMN 200 uM): 48.2 nM
apparent KD of MS2 coat protein [4]: 32.6 nM
apparent KD of MS2 coat protein (input ligand: none): 53.3 nM

CAUAAACCUCACGAGGAUAUCCACAGAUAGACAUGAGGAUCACCCAUGUCGACUUUCGAACUGAGGGAGAAGGCGUAGGUACUAA [Gebiorge] (puzzle: Same State 2)
apparent KD of MS2 coat protein [1]: 12.1 nM
apparent KD of MS2 coat protein [2]: 13.1 nM
apparent KD of MS2 coat protein [3]: 13.4 nM

CAUCGUUUGAUAGGAUAUCGCUAUACAUGAGGAUCACCCAUGUUUACCACGCUGGUUUUUCAUACCGAGAAGGAUUCUGAUGAA [salish99_SSNG02_r04_011] (Eterna round: R96, puzzle: Same State NG 2)
apparent KD of MS2 coat protein (input ligand: FMN 200 uM): 24.9 nM
apparent KD of MS2 coat protein [4]: 29.7 nM
apparent KD of MS2 coat protein (input ligand: none): 34.5 nM

CAUCGUUUGAUAGGAUAUCGCUAUACAUGAGGAUCACCCAUGUUUACCACGCUGGUUUUUCAUACCGAGAAGGAUUCUGAUGAU [salish99_SSNG02_r04_013] (Eterna round: R96, puzzle: Same State NG 2)
apparent KD of MS2 coat protein (input ligand: FMN 200 uM): 29.6 nM
apparent KD of MS2 coat protein [4]: 27.8 nM
apparent KD of MS2 coat protein (input ligand: none): 32.5 nM

CAUCUAUACGUAGGAUAUGUAGGAUAUUCCUACAUGAGGAUCACCCAUGUUCGCAUGGAAGAAGGACAGAAGGACGAACUACUU [pwkr ssNG2 2FMN + 1F5.7] (Eterna round: R96, puzzle: Same State NG 2)
apparent KD of MS2 coat protein (input ligand: FMN 200 uM): 320 nM
apparent KD of MS2 coat protein [4]: 144 nM
apparent KD of MS2 coat protein (input ligand: none): 21.5 nM

CAUCUCCCUUUUACAUGAGGAUCACCCAUGUUUUUAUAAUGAGAGGAUAUCGUAUUUAGAAACAUCGAGAAGGCUCAAUUGUAU [JR_SSNG3_Sub071] (Eterna round: R96, puzzle: Same State NG 3)
apparent KD of MS2 coat protein (input ligand: FMN 200 uM): 131 nM
apparent KD of MS2 coat protein [4]: 93 nM
apparent KD of MS2 coat protein (input ligand: none): 153 nM

CCAAAGUACAAUUUAGAUCUACAUGAGGAUCACCCAUGUACUGAGGAUAUCAGCUCGAAUAGAGCUGAGAAGGCAGAAUUAAUU [SSNG3/4-A1] (Eterna round: R96, puzzle: Same State NG 3)
apparent KD of MS2 coat protein (input ligand: FMN 200 uM): 155 nM
apparent KD of MS2 coat protein [4]: 155 nM
apparent KD of MS2 coat protein (input ligand: none): 317 nM

CCAAAGUACAAUUUAGAUCUACAUGAGGAUCACCCAUGUACUGAGGAUAUCAGCUCGAUUAGAGCUGAGAAGGCAGAAUUAAUU [SSNG3/4-A2] (Eterna round: R96, puzzle: Same State NG 3)
apparent KD of MS2 coat protein (input ligand: FMN 200 uM): 101 nM
apparent KD of MS2 coat protein [4]: 90 nM
apparent KD of MS2 coat protein (input ligand: none): 148 nM

CCAUAACGGUGAGGAUAUUGUUGCGAUAAGUGACGAGAAGGCAUUCAUGUGAAAUAAACAUACAUGAGGAUCACCCAUGUUGUA [Omei SS(NG)1 Bv3] (Eterna round: R96, puzzle: Same State NG 1)
apparent KD of MS2 coat protein (input ligand: FMN 200 uM): 22.6 nM
apparent KD of MS2 coat protein [4]: 40.8 nM
apparent KD of MS2 coat protein (input ligand: none): 50.2 nM

CCAUAGUACAAUUUAGAUCUACAUGAGGAUCACCCAUGUACUGAGGAUAUCAGCUCGAAUAGAGCUGAGAAGGCAGAAGUACUU [SSNG3/6-A1] (Eterna round: R96, puzzle: Same State NG 3)
apparent KD of MS2 coat protein (input ligand: FMN 200 uM): 22.6 nM
apparent KD of MS2 coat protein [4]: 101 nM
apparent KD of MS2 coat protein (input ligand: none): 83.6 nM

CCAUAGUACAAUUUAGAUCUACAUGAGGAUCACCCAUGUACUGAGGAUAUCAGCUCGAUUAGAGCUGAGAAGGCAGAAGUACUU [SSNG3/6-A2] (Eterna round: R96, puzzle: Same State NG 3)
apparent KD of MS2 coat protein (input ligand: FMN 200 uM): 39.3 nM
apparent KD of MS2 coat protein [4]: 64.6 nM
apparent KD of MS2 coat protein (input ligand: none): 81.1 nM

CCAUAGUACAAUUUAGAUCUACAUGAGGAUCACCCAUGUACUGAGGAUAUCAGCUCGUUUAGAGCUGAGAAGGCAGAAUUAAUU [SSNG3/5-A3] (Eterna round: R96, puzzle: Same State NG 3)
apparent KD of MS2 coat protein (input ligand: FMN 200 uM): 57.1 nM
apparent KD of MS2 coat protein [4]: 116 nM
apparent KD of MS2 coat protein (input ligand: none): 112 nM

CCAUGGUAACAUGAGGAUCACCCAUGUACAAGCUUUUUGCUCGGUUUUAUCCCGGGCCCGGAUUACACGGGCCCGGG [Initial Design] (puzzle: Sensor for hsa-mir-208a version 2)
apparent KD of MS2 coat protein [1]: 41.4 nM
apparent KD of MS2 coat protein [2]: 50.7 nM
apparent KD of MS2 coat protein [3]: 33.6 nM

CCCUGAGGUAACCUACAGGGACAUGAGGAUCACCCAUGUACACAGGAUAUCGAAGGCUCCGCCCUCGAGAAGGGUGAUCAAACU [Leuslein] (Eterna round: R96, puzzle: Same State NG 3)
apparent KD of MS2 coat protein (input ligand: FMN 200 uM): 1520 nM
apparent KD of MS2 coat protein [4]: 266 nM
apparent KD of MS2 coat protein (input ligand: none): 109 nM

CCGAGUGGCGUACAGGAUAUGUUGCGUGGAACAUGAGGAUCACCCAUGUAUUUGCUCCUGCAUACGCAGAAGGGUGCGUCCUGGG [Estedibe] (Eterna round: R96, puzzle: Same State 2)
apparent KD of MS2 coat protein (input ligand: FMN 200 uM): 16 nM
apparent KD of MS2 coat protein [4]: 24.1 nM
apparent KD of MS2 coat protein (input ligand: none): 29.3 nM

CCGAUGACAGGACAGGAUAUGACUGUCGUCACAUGAGGAUCACCCAUGUCCCGGCAAUGCCACCGUUAGAAGGGUCCUAUCUCGG [Arxeina] (puzzle: Same State 2)
apparent KD of MS2 coat protein [1]: 16.7 nM
apparent KD of MS2 coat protein [2]: 16.3 nM
apparent KD of MS2 coat protein [3]: 18.2 nM

CCGAUGUGGGUACAGGAUAUGUGGGCCUCCACAUGAGGAUCACCCAUGUCGGAGGCAAAGCGGCUACAGAAGGGUGCGUGCUCGA [Riinceer] (puzzle: Same State 2)
apparent KD of MS2 coat protein [1]: 13.1 nM
apparent KD of MS2 coat protein [2]: 11.3 nM
apparent KD of MS2 coat protein [3]: 12.3 nM

CCGAUGUGGGUACAGGAUAUGUGGGCCUCCACAUGAGGAUCACCCAUGUCGGAGGCAAUGCGGCUACAGAAGGGUGCGAGCUCGA [Tileorat] (puzzle: Same State 2)
apparent KD of MS2 coat protein [1]: 14.1 nM
apparent KD of MS2 coat protein [2]: 10.9 nM
apparent KD of MS2 coat protein [3]: 13.5 nM

CCGCUAAAUGGAGGAUAUGGAGCCUUAUUGGCUCCAGAAGGCUAAAACAUGAGGAUCACCCAUGUGCGGCGGUCUAAUGACCGA [Eli NG1ss - 49] (Eterna round: R96, puzzle: Same State NG 1)
apparent KD of MS2 coat protein (input ligand: FMN 200 uM): 14.7 nM
apparent KD of MS2 coat protein [4]: 34.6 nM
apparent KD of MS2 coat protein (input ligand: none): 49.3 nM

CCGGCAAGUAUAGGAUAUCCCGCAACAGAAGCGGGAGAAGGGUGCCAAACAUGAGGAUCACCCAUGUACACCGGAAAUAAAUAA [Veaat] (Eterna round: R96, puzzle: Same State NG 1)
apparent KD of MS2 coat protein (input ligand: FMN 200 uM): 92.9 nM
apparent KD of MS2 coat protein [4]: 46.6 nM
apparent KD of MS2 coat protein (input ligand: none): 30.5 nM

CCGUAAUAUGGAGGAUAUGGAGCCUUAUUGGCUCCAGAAGGUCAAAACAUGAGGAUCACCCAUGUAUCGGCGGUCAAUAGACCG [Eli NG1ss - 74] (Eterna round: R96, puzzle: Same State NG 1)
apparent KD of MS2 coat protein (input ligand: FMN 200 uM): 42.1 nM
apparent KD of MS2 coat protein [4]: 53.3 nM
apparent KD of MS2 coat protein (input ligand: none): 91.2 nM

CCUUAGUACAAUUUAGAUCUACAUGAGGAUCACCCAUGUACUGAGGAUAUCAGCUCGAUUAGAGCUGAGAAGGCAGAAGUACUU [SSNG3/7-A2] (Eterna round: R96, puzzle: Same State NG 3)
apparent KD of MS2 coat protein (input ligand: FMN 200 uM): 90.9 nM
apparent KD of MS2 coat protein [4]: 122 nM
apparent KD of MS2 coat protein (input ligand: none): 144 nM

CCUUAGUACAAUUUAGAUCUACAUGAGGAUCACCCAUGUACUGAGGAUAUCAGCUCGUUUAGAGCUGAGAAGGCAGAAGUACUU [SSNG3/7-A3] (Eterna round: R96, puzzle: Same State NG 3)
apparent KD of MS2 coat protein (input ligand: FMN 200 uM): 75.1 nM
apparent KD of MS2 coat protein [4]: 67.6 nM
apparent KD of MS2 coat protein (input ligand: none): 140 nM

CCUUCGGGAGUAGGAUAUGUAGGAUAUGCCUACAUGAGGAUCACCCAUGUUCGCAUGGCAGAAGGACAGAAGGACACGUUCGCG [pwkr ssNG2 2FMN + 1F5.13] (Eterna round: R96, puzzle: Same State NG 2)
apparent KD of MS2 coat protein (input ligand: FMN 200 uM): 95.4 nM
apparent KD of MS2 coat protein [4]: 287 nM
apparent KD of MS2 coat protein (input ligand: none): 652 nM
